Laboratory results reported in patent US11813311B2, “Treatment and prevention of metabolic diseases” (Singapore Health Services PTE LTD., priority 2019, dated 2023).

Assays:
[1] = system: rheumatoid synovial cells; conditions: cited from earlier work
[2] = system: IL-11 mediated signalling; conditions: cited from earlier work
[3] = system: primary human hepatocytes; assay: Palmitate loading (lipotoxicity) of primary human hepatocytes; assay type: cell-based
Experimental: Palmitate:BSA conjugated solution in the ratio of 6:1 was prepared as described earlier (Alsabeeh et al., 2018). Palmitate (0.5 mM) conjugated in fatty acids free BSA was used to treated cells as described in figure legends; 0.5% BSA solution was used as control. […]
Primary human hepatocytes were seeded on 8-well chamber slides (1×10^4 cells/well). For this experiment, cells were not serum-starved prior to palmitate treatment. 24 hours following palmitate stimulation, cells were washed, incubated with 25 μM of DCFDA solution (ab113851, Abcam) for 45 minutes at 37° C. in the dark, and rinsed with dilution buffer according to the manufacturer's protocol. Live cells with positive DCF staining were imaged with filter set appropriate for fluorescein (FITC) using a fluorescence microscope (Leica). […]
(§1) Western blots were carried out on total protein extracts from hepatocytes and liver tissues. Hepatocyte and liver tissue lysates were homogenized in RIPA Lysis and Extraction Buffer (89901, Thermo Scientific) containing protease and phosphatase inhibitors (Roche). Protein lysates were separated by SDS-PAGE and transferred to PVDF membranes. Protein bands were visualized using the ECL detection system (Pierce) with the appropriate secondary antibodies: anti-rabbit HRP or anti-mouse HRP.

[4] = system: primary human hepatocytes; assay: Stimulation of primary human hepatocytes with IL11, hyperIL11, hyperIL6; assay type: cell-based
Experimental: Human hepatocytes (5200, ScienCell) were grown and maintained in hepatocyte media (5201, ScienCell) supplemented with 2% fetal bovine serum (FBS) and 1% Penicillin-streptomycin.
Primary human hepatocytes (5200, ScienCell) were maintained in hepatocyte medium ([…], ScienCell) supplemented with 2% fetal bovine serum, 1% Penicillin-streptomycin at 37° C. and 5% CO2. Hepatocytes (P2-P3) were serum-starved overnight unless otherwise specified in the methods prior to 24 hours stimulation with different doses of various recombinant proteins as described.
For surface IL11RA, IL6R, and gp130 analysis, primary human hepatocytes and THP-1 cells were stained with IL11RA, IL6R, or gp130 antibody and the corresponding Alexa Fluor 488 secondary antibody. Cell death analysis was performed by staining primary human hepatocytes with Dead Cell Apoptosis Kit with Annexin V FITC and PI (V13242, Thermo Fisher). PI+ve cells were then quantified with the flow cytometer (Fortessa, BD Biosciences) and analyzed with FlowJo version X software (TreeStar).
Alanine Aminotransferase (ALT) activity in the cell culture supernatant and mouse serum was measured using ALT Activity Assay Kit (ab105134, Abcam). Liver Glutathione (GSH) levels were measured using Glutathione Colorimetric Detection Kit (EIAGSHC, Thermo Fisher). Total hydroxyproline content in mouse livers was measured using Quickzyme Total Collagen assay kit (QZBtotco15, Quickzyme Biosciences). The levels of serum and liver triglycerides were measured using Triglyceride Assay Kit (ab65336, Abcam). Mouse serum levels of Aspartate Aminotransferase (AST) and cholesterol were measured using AST Assay Kit (ab105135, Abcam) and Cholesterol Assay Kit (ab65390; Abcam), respectively. All colorimetric assays were performed according to the manufacturer's protocol.
as §1

HFMCD-fed mice = assay: Hepatocyte-specific sgp130 expression in HFMCD-fed mice; assay type: in vivo, mouse
Experimental: (§2) Three weeks prior to starting either the WDF and HFMCD diet, mice were injected with an AAV8 virus encoding either albumin promoter-driven sgp130 (AAV8-Alb-sgp130), which contains the whole extracellular domain of mouse gp130 protein (amino acid 1 to 617), or albumin promoter alone (AAV8-Alb-Null) (FIGS. 35A, 41A, and 42A). AAV8-Alb-sgp130 administration induced high levels of sgp130 in the liver, which was also detectable in the peripheral circulation, suitable for both local and systemic inhibition of putative IL6 or IL11 trans-signaling (FIGS. 35B, 41B, 42B-42C).
6-8 weeks old C57BL/6N, Il11ra1−/− mice, and Il11ra1loxP/loxP and their respective control were fed with methionine- and choline-deficient diet supplemented with 60 kcal % fat (HFMCD, A06071301B16, Research Diets) for 4 weeks. Control mice received normal chow (NC, Specialty Feeds).
(§3) 6-8-week old male C57BL/6N mice (InVivos) were injected with 4×10^11 gc AAV8-Alb-sgp130 virus to induce hepatocyte specific expression of soluble gp130; control mice were injected with 4×10^11 gc AAV8-Alb-Null virus. 3 weeks following virus administration, mice were fed with HFMCD, WDF, or NC for durations that are described.

WDF-fed mice = assay: Hepatocyte-specific sgp130 expression in WDF-fed mice; assay type: in vivo, mouse
Experimental: as §2
6-8 weeks old C57BL/6N, Il11ra1−/− mice, and Il11ra1loxP/loxP and their respective control were fed western diet (D12079B, Research Diets) supplemented with 15% weight/volume fructose in drinking water (WDF) for 16 weeks. Control mice received NC and tap water.
as §3

Molecule: COc1ccc2c(c1)c(CC(=O)O)c(C)n2C(=O)c1ccc(Cl)cc1 [indomethacin, reference compound]
- expression of IL-11 [1]: reduction in the expression of IL-11

B1: interferon-gamma: interferon-gamma (IFNγ) (protein, UniProt P01579 24-161, looked up)
Interferon gamma: QDPYVKEAENLKKYFNAGHSDVADNGTLFLGILKNWKEESDRKIMQSQIVSFYFKLFKNFKDDQSIQKSVETIKEDMNVKFFNSNKKKRDDFEKLTNYSVTDLNVQRKAIHELIQVMAELSPAAKTGKRKRSQMLFRG
- expression of IL-11 [1]: reduction in the expression of IL-11

B2: W147A: IL-11 antagonist mutein, amino acid 147 mutated from tryptophan to alanine (protein, UniProt P20809 22-199, looked up, variant W147A)
Interleukin-11: PGPPPGPPRVSPDPRAELDSTVLLTRSLLADTRQLAAQLRDKFPADGDHNLDSLPTLAMSAGALGALQLPGVLTRLRADLLSYLRHVQWLRRAGGSSLKTLEPELGTLQARLDRLLRRLQLLMSRLALPQPPPDPPAPPLAPPSSAAGGIRAAHAILGGLHLTLDWAVRGLLLLKTRL
- antagonism of IL-11 mediated signalling [2]: efficient blockade of IL-11 signalling

B3: sgp130: Soluble gp130, inhibitor of trans-signaling; human sgp130 Fc in vitro, mouse sgp130 expressed from AAV8-Alb-sgp130 in vivo (protein)
chain: ELLDPCGYISPESPVVQLHSNFTAVCVLKEKCMDYFHVNANYIVWKTNHFTIPKEQYTIINRTASSVTFTDIASLNIQLTCNILTFGQLEQNVYGITIISGLPPEKPKNLSCIVNEGKKMRCEWDGGRETHLETNFTLKSEWATHKFADCKAKRDTPTSCTVDYSTVYFVNIEVWVEAENALGKVTSDHINFDPVYKVKPNPPHNLSVINSEELSSILKLTWTNPSIKSVIILKYNIQYRTKDASTWSQIPPEDTASTRSSFTVQDLKPFTEYVFRIRCMKEDGKGYWSDWSEEASGITYEDRPSKAPSFWYKIDPSHTQGYRTVQLVWKTLPPFEANGKILDYEVTLTRWKSHLQNYTVNATKLTVNLTNDRYLATLTVRNLVGKSDAAVLTIPACDFQATHPVMDLKAFPKDNMLWVEWTTPRESVKKYILEWCVLSDKAPCITDWQQEDGTVHRTYLRGNLAESKCYLITVTPVYADGPGSPESIKAYLKQAPPSKGPTVRTKKVGKNEAVLEWDQLPVDVQNGFIRNYTIFYRTIIGNETAVNVDSSHTEYTLSSLTSDTLYMVRMAAYTDEGGKDGPEFTFTTPKFAQGEIE
modifications: left off: a dimerising Fc or GST
notes: human sgp130 Fc in vitro, mouse sgp130 expressed from AAV8-Alb-sgp130 in vivo
- palmitate-induced signaling events ([3]; Western blot): no effect
- secretion of cytokines (IL11, IL6, CCL2, CCL5) ([3]; X209 2 μg/ml or sgp130 1 μg/ml): no effect
- IL11-induced hepatocyte death and signaling ([4]; IL11 20 ng/ml, sgp130 or sIL11RA 1 μg/ml): unaffected
- ALT release from IL11-stimulated hepatocytes ([4]; increasing doses of sgp130 or sIL11RA): no effect
- activation of signaling downstream of hyperIL6 (p-STAT3) ([4]; sgp130 added): blocked
- activation of signaling downstream of hyperIL11 (p-ERK/p-JNK) ([4]; sgp130 added): blocked
- hepatotoxic effects of hyperIL11 ([4]; sgp130 added): inhibited
- IL11 dose-dependent hepatocyte cell death on addition of decoy ([4]; sgp130 or sIL11RA 1 μg/ml): unaffected
- diet-induced signaling events (HFMCD-fed mice; HFMCD): no effect
- HFMCD-induced liver fibrosis (HFMCD-fed mice; HFMCD 4 weeks): unchanged
- expression of inflammation and fibrosis genes (HFMCD-fed mice; HFMCD 4 weeks): unaffected
- hepatocyte damage markers (ALT and AST) and GSH (HFMCD-fed mice; HFMCD 4 weeks): irrespective of sgp130 expression
- steatosis (HFMCD-fed mice; HFMCD 4 weeks): unaltered
- ALT, AST, collagen, fasting blood glucose, serum triglycerides, serum cholesterol, GSH (WDF-fed mice; 16 weeks of WDF): none of these parameters were affected
- expression of pro-inflammatory and fibrosis genes (WDF-fed mice; 16 weeks of WDF): unaffected
- obesity, liver mass and steatosis phenotypes (WDF-fed mice; 16 weeks of WDF): unaffected
- diet-induced signaling events (WDF-fed mice; WDF): no effect

B4: sIL-11R: soluble murine IL-11 receptor alpha chain (Curtis et al.) (protein, UniProt Q64385 24-372, looked up)
extracellular domain: SPCPQAWGPPGVQYGQPGRPVMLCCPGVSAGTPVSWFRDGDSRLLQGPDSGLGHRLVLAQVDSPDEGTYVCQTLDGVSGGMVTLKLGFPPARPEVSCQAVDYENFSCTWSPGQVSGLPTRYLTSYRKKTLPGAESQRESPSTGPWPCPQDPLEASRCVVHGAEFWSEYRINVTEVNPLGASTCLLDVRLQSILRPDPPQGLRVESVPGYPRRLHASWTYPASWRRQPHFLLKFRLQYRPAQHPAWSTVEPIGLEEVITDAVAGLPHAVRVSARDFLDAGTWSAWSPEAWGTPSTGPLQDEIPDWSQGHGQQLEAVVAQEDSPAPARPSLQPDPRPLDHRDPLEQVAVLA
modifications: extracellular domain
- antagonism of IL-11 mediated signalling [2]: capable of antagonizing the activity of IL-11
